Test results: patent publication US20110223168A1 (published 2011)
Positions count from the first letter of the chain named.

B1: TAR1-5d5 (other)
chain: DIQMTQSPSSLSASVGDRVTITCRASQSIFMNLLWYQQKPGKAPKLLIYNASVLQSGVPSRFSGSGSGTDFTLTISSLQPEDFATYYCQQVVWRPFTFGQGTKVEIKRGGGGSGGGGSGGGGSGGGGSGGGGSDIQMTQSPSSLSASVGDRVTITCRASQSIYDALEWYQQKPGKAPKLLIYTASRLQSGVPSRFSGSGSGTDFTLTISSLQPEDFATYYCQQVMQRPVTFGQGTKVEIKR
notes: dAb-linker-dAb dimer; also called TAR1-5 dimer 5
B2: TAR1-5d6 (other)
chain: DIQMTQSPSSLSASVGDRVTITCRASQSIFMNLLWYQQKPGKAPKLLIYNASVLQSGVPSRFSGSGSGTDFTLTISSLQPEDFATYYCQQVVWRPFTFGQGTKVEIKRGGGGSGGGGSGGGGSGGGGSGGGGSGGGGSGGGGSDIQMTQSPSSLSASVGDRVTITCRASQSIYDALEWYQQKPGKAPKLLIYTASRLQSGVPSRFSGSGSGTDFTLTISSLQPEDFATYYCQQVMQRPVTFGQGTKVEIKR
notes: dAb-linker-dAb dimer; also called TAR1-5 dimer 6
B3: TAR1-5d1 (other)
chain: DIQMTQSPSSLSASVGDRVTITCRASQSIFMNLLWYQQKPGKAPKLLIYNASVLQSGVPSRFSGSGSGTDFTLTISSLQPEDFATYYCQQVVWRPFTFGQGTKVEIKRGGGGSGGGGSGGGGSDIQMTQSPSSLSASVGDRVTITCRASQSIYDALEWYQQKPGKAPKLLIYTASRLQSGVPSRFSGSGSGTDFTLTISSLQPEDFATYYCQQVMQRPVTFGQGTKVEIKR
notes: dAb-linker-dAb dimer; also called TAR1-5 dimer 1
B4: TAR1-5d4 (other)
chain: DIQMTQSPSSLSASVGDRVTITCRASQSIFMNLLWYQQKPGKAPKLLIYNASVLQSGVPSRFSGSGSGTDFTLTISSLQPEDFATYYCQQVVWRPFTFGQGTKVEIKRGGGGSGGGGSGGGGSGGGGSGGGGSDIQMTQSPSSLSASVGDRVTITCRASQSVKEFLWWYQQKPGKAPKLLIYMASNLQSGVPSRFSGSGSGTDFTLTISSLQPEDFATYYCQQKFKLPRTFGQGTKVEIKR
notes: dAb-linker-dAb dimer; also called TAR1-5 dimer 4
B5: TAR1-5CH/dAb1 CK Fab (Fab, V domains shown, not shown: large carriers)
V domain 1: DIQMTQSPSSLSASVGDRVTITCRASQSIFMNLLWYQQKPGKAPKLLIYNASVLQSGVPSRFSGSGSGTDFTLTISSLQPEDFATYYCQQVVWRPFTFGQGTKVEIKR
V domain 2: B5 V domain 1 with F30Y, M31D, N32A, L34E, N50T, V53R, V92M, W93Q, F96V
B6: dAb3CH/TAR1-5CK Fab (Fab, V domains shown, not shown: large carriers)
V domain 1: DIQMTQSPSSLSASVGDRVTITCRASQSVKEFLWWYQQKPGKAPKLLIYMASNLQSGVPSRFSGSGSGTDFTLTISSLQPEDFATYYCQQKFKLPRTFGQGTKVEIKR
V domain 2: B5 V domain 1
notes: also called TAR1-5CK d3CH
B7: TAR1-5-19CH/dAb1 CK Fab (Fab, V domains shown, not shown: large carriers)
V domain 1: B5 V domain 1 with F30D, M31S, N32Y, L34H, N50S, V53E
V domain 2: B5 V domain 1 with F30Y, M31D, N32A, L34E, N50T, V53R, V92M, W93Q, F96V
notes: also called TAR1-5-19CH d1CK
B8: TAR1-5-19CH/dAb3CK Fab (Fab, V domains shown, not shown: large carriers)
V domain 1: B5 V domain 1 with F30D, M31S, N32Y, L34H, N50S, V53E
V domain 2: B6 V domain 1
notes: also called TAR1-5-19CH d3CK
B9: dAb1 CH/TAR1-5-19CK Fab (Fab, V domains shown, not shown: large carriers)
V domain 1: B5 V domain 1 with F30Y, M31D, N32A, L34E, N50T, V53R, V92M, W93Q, F96V
V domain 2: B5 V domain 1 with F30D, M31S, N32Y, L34H, N50S, V53E
notes: also called TAR1-5-19CK d1CH
B10: MSA16 (other)
VL: DIQMTQSPSSLSASVGDRVTITCRASQSIIKHLKWYQQKPGKAPKLLIYGASRLQSGVPSRFSGSGSGTDFTLTISSLQPEDFATYYCQQGARWPQTFGQGTKVEIK
notes: also called clone 16; clone 21
B11: MSA26 (other)
VL: B10 VL with I30Y, K31Y, G50K, R53T, G91V, A92R, R93K, W94V, Q96R
notes: also called clone 26; clone 25
B12: TAR1-5-19 5U homodimer (other)
chain: DIQMTQSPSSLSASVGDRVTITCRASQSIDSYLHWYQQKPGKAPKLLIYSASELQSGVPSRFSGSGSGTDFTLTISSLQPEDFATYYCQQVVWRPFTFGQGTKVEIKRGGGGSGGGGSGGGGSGGGGSGGGGSDIQMTQSPSSLSASVGDRVTITCRASQSIDSYLHWYQQKPGKAPKLLIYSASELQSGVPSRFSGSGSGTDFTLTISSLQPEDFATYYCQQVVWRPFTFGQGTKVEIKR
notes: also called TAR1-5-19 homodimer with (Gly4Ser)5 linker
B13: TAR1-5-19 7U homodimer (other)
chain: DIQMTQSPSSLSASVGDRVTITCRASQSIDSYLHWYQQKPGKAPKLLIYSASELQSGVPSRFSGSGSGTDFTLTISSLQPEDFATYYCQQVVWRPFTFGQGTKVEIKRGGGGSGGGGSGGGGSGGGGSGGGGSGGGGSGGGGSDIQMTQSPSSLSASVGDRVTITCRASQSIDSYLHWYQQKPGKAPKLLIYSASELQSGVPSRFSGSGSGTDFTLTISSLQPEDFATYYCQQVVWRPFTFGQGTKVEIKR
notes: also called TAR1-5-19 homodimer with (Gly4Ser)7 linker
B14: TAR1-5-19 3U homodimer (other)
chain: DIQMTQSPSSLSASVGDRVTITCRASQSIDSYLHWYQQKPGKAPKLLIYSASELQSGVPSRFSGSGSGTDFTLTISSLQPEDFATYYCQQVVWRPFTFGQGTKVEIKRGGGGSGGGGSGGGGSDIQMTQSPSSLSASVGDRVTITCRASQSIDSYLHWYQQKPGKAPKLLIYSASELQSGVPSRFSGSGSGTDFTLTISSLQPEDFATYYCQQVVWRPFTFGQGTKVEIKR
notes: also called TAR1-5-19 homodimer with (Gly4Ser)3 linker
B15: TAR1-5-19d5 (other)
chain: B1 chain with F30D, M31S, N32Y, L34H, N50S, V53E
B16: TAR1-5-19 d6 (other)
chain: B2 chain with F30D, M31S, N32Y, L34H, N50S, V53E
B17: TAR1-5-19 d1 (other)
chain: B3 chain with F30D, M31S, N32Y, L34H, N50S, V53E
notes: TAR1-5-19 substituted for TAR1-5 in lead clone d1
B18: TAR1-5-19, MSA16 cys bonded heterodimer (bispecific antibody, V domains shown)
V domain 1: B5 V domain 1 with F30D, M31S, N32Y, L34H, N50S, V53E
V domain 2: DIQMTQSPSSLSASVGDRVTITCRASQSIIKHLKWYQQKPGKAPKLLIYGASRLQSGVPSRFSGSGSGTDFTLTISSLQPEDFATYYCQQGARWPQTFGQGTKVEIKR
modifications: C-terminal Cys disulphide bonded to the C-terminal Cys of the MSA16 chain ; Chain 1 pos 109 Cys and chain 2 pos 109 Cys are joined by an intermolecular disulphide bond, made by chemical coupling via dithiodipyridine activation.
notes: Made by chemical coupling via a disulphide bond; separated from monomers by cation exchange; also called disulphide bonded heterodimer of TAR1-5-19 dAb and MSA16 dAb; cys bonded TAR1-5-19, MSA16 dimer
B19: TAR1-27d16 (other)
chain: DIQMTQSPSSLSASVGDRVTITCRASQSIWTKLHWYQQKPGKAPKLLIYMASSLQSGVPSRFSGSGSGTDFTLTISSLQPEDFATYYCQQWFSNPSTFGQGTKVEIKRGGGGSGGGGSGGGGSDIQMTQSPSSLSASVGDRVTITCRASQSIGPNLEWYQQKPGKAPKLLIYAASSLQSGVPSRFSGSGSGTDFTLTISSLQPEDFATYYCQQQMGRPRTFGQGTKVEIKR
notes: dAb-linker-dAb dimer; also called TAR1-27 dimer d16
B20: TAR1-5-19CYS dimer (other)
VL: DIQMTQSPSSLSASVGDRVTITCRASQSIDSYLHWYQQKPGKAPKLLIYSASELQSGVPSRFSGSGSGTDFTLTISSLQPEDFATYYCQQVVWRPFTFGQGTKVEIKRC
modifications: C-terminal Cys forms the disulphide between the two chains
notes: Dimer via the engineered C-terminal cysteine, purified by protein L and cation exchange; also called TAR1-5-19CYS disulphide dimer
B21: TAR1-5-19 cys hinge dimer (other)
chain: DIQMTQSPSSLSASVGDRVTITCRASQSIDSYLHWYQQKPGKAPKLLIYSASELQSGVPSRFSGSGSGTDFTLTISSLQPEDFATYYCQQVVWRPFTFGQGTKVEIKREPKSGDKTHTCPPCP
modifications: hinge cysteines form the cystine bond(s) between the two chains
notes: Dimerises in the periplasm; FPLC purified dimer fraction tested; also called cysteine hinge linker format

These binders were tested against T1, human TNFα (human, UniProt P01375 77-233) (assay: TNF receptor assay: inhibition of TNF binding to TNFR1-Fc (ELISA)).
T1 construct: Coated on plates, coupled to a CM5 chip, or added in solution (10 ng/ml) in the TNF receptor assay; the assay paragraphs often print only 'TNF'; also called TNF alpha; TAR1
T1 sequence (P01375 77-233 limits assumed): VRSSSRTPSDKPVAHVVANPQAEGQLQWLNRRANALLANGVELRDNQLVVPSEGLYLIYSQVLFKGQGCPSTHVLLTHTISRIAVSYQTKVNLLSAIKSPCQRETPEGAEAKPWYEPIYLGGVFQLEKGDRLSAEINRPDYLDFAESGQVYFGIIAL

Row | Binder | IC50 [nM]
1 | B1 | ~200
2 | B2 | ~100
3 | B3 | ~30
4 | B4 | ~3

Target: T1, human TNFα
Assay: as above
Remark: another data set of the same source

Row | Binder | IC50 [nM]
5 | B5 | ~90
6 | B6 | ~100
7 | B7 | ~6
8 | B8 | ~3
9 | B9 | ~6

These binders were tested against T2, mouse serum albumin (MSA) (mouse, UniProt P07724 25-608) (assay: inhibition biacore: dAb premixed with MSA, binding to MSA-coated CM5 chip, Klotz plot (estimated Kd)).
T2 construct: Used coated, on a CM5 chip, in solution and biotinylated (about 2 biotins per molecule); also called biotinylated MSA
T2 sequence (P07724 25-608 limits assumed): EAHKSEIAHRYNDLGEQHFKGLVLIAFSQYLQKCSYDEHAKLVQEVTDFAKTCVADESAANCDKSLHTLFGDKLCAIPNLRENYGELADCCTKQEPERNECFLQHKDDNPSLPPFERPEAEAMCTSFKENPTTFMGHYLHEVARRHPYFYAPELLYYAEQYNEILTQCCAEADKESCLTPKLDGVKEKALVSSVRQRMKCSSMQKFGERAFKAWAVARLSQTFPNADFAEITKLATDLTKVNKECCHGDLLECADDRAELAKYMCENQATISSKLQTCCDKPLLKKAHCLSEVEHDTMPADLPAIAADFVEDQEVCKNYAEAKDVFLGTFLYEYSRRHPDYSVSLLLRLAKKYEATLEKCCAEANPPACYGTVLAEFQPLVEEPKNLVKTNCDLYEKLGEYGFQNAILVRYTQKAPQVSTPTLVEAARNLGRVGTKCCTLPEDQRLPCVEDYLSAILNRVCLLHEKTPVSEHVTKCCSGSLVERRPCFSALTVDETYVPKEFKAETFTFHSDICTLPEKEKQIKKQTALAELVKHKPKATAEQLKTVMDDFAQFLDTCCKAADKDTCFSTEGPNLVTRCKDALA
Description: Briefly, the dAbs were tested to determine the concentration of dAb required to achieve 200 RUs of response on a biacore CM5 chip coated with a high density of MSA. Once the required concentrations of dAb had been determined, MSA antigen at a range of concentrations around the expected Kd was premixed with the dAb and incubated overnight. Binding to the MSA coated biacore chip of dAb in each of the premixes was then measured at a high flow-rate of 30 μl/minute.
The purified dAbs were then analysed by inhibition biacore to determine Kd. […] Once the required concentrations of dAb had been determined, MSA antigen at a range of concentrations around the expected Kd was premixed with the dAb and incubated overnight. Binding to the MSA coated biacore chip of dAb in each of the premixes was then measured at a high flow-rate of 30 μl/minute.

Row | Binder | Kd [nM]
10 | B10 | 200
11 | B11 | 70

The binders below were run against T1, human TNFα (assay: cell-based or functional assay).

Row | Binder | CA (cell assay, ND50) [nM]
12 | B12 | ~3
13 | B13 | ~15
14 | B14 | ~30

Target: T1, human TNFα
Assay: TNF receptor assay: inhibition of TNF binding to TNFR1-Fc (ELISA)
Remark: another data set of the same source

Row | Binder | IC50 [nM]
15 | B15 | ~8
16 | B16 | ~10
17 | B17 | ~15

Target: T1, human TNFα
Assay: as above
Remark: another data set of the same source

Row | Binder | IC50 [nM]
18 | B18 | ~18
19 | B19 | ~50
20 | B20 | 0.3 to 0.8

Target: T1, human TNFα
Assay: as above
Remark: another data set of the same source

Row | Binder | IC50 [nM]
21 | B12 | ~2
22 | B13 | ~10
23 | B14 | ~20
24 | B21 | ~2
